# Source: patent US20250066456A1 (NOVAVAX, published 2025)
# B1: 35.13 (antibody, V domains shown)
# VH: QVQLQQSGAELGKPGASVKLSCRASGYTFTRYYIYWVKQRPGQGLEWIGEINPSNGDTHFNEKFKTKATLTVDKSSSSAHIHLTSLTSEDSAVYYCSIHAYSFDFWGQGTTLTVSS
# VL: EIQMTQSPSSMSASLGDRITITCQATQDIVKNLNWYQQKPGKPPSFLIYHATELAKGVPSRFSGSGSGSDYSLTISNLESEDFADYYCLQFYDFPFTFGAGTKLELKR
# B2: 425.6 (antibody, V domains shown)
# VH: VQLKQSGPSLVQPSQSLSITCTVSGFSLTSYGIHWVRQSPGKGLEWLGVIWRGGSTDYNAAFMSRLTITKDNSKSQVFFKMNSLQADDTAIYYCATHTEGDDVDYWGQGTSVTVSS
# VL: QIVLTQSPAIMSVSPGEKVTMTCSASSTMSFMYWYQQKPGSSPRLLIYDTSNLASGVPVRFSGSGSGTSYSLTISRVEAEDAATYYCQQWNTYPLTFGAGTKLELKR
# B3: 322.3 (antibody, V domains shown)
# VH: RVQLQQSGPELVKPGASVTISCKASGYIFTSDYIHWVKQRPGQGPEWIGWIYPGNINTKYNEKFKGKATLTADKSSSTAYMQLSSLTSEDSAVYFCARDDGNLYYYAMDYWGQGTSVTVSS
# VL: NIVLTQSPASLAVSLGQRATISCRASESVDSYGSSFMHWYQQKPGQPPKLLIYLASNLESGVPARFSGSGSRTDFTLTIDPVEADDAATYYCQQNNEDPRTFGGGTKLEIK
# Tests used:
# [1] = biological target: T1, BV2523 (recombinant CoV S glycoprotein, BA.2) (SARS-CoV-2, UniProt P0DTC2 14-1273); assay: hACE2 receptor inhibition ELISA on coated rS; competitor hACE2-His
# [2] = biological target: T2, BV2561 (recombinant CoV S glycoprotein, BA.2.75) (SARS-CoV-2, UniProt P0DTC2 14-1273); assay: as above
# [3] = biological target: T3, BV2540 (recombinant CoV S glycoprotein, BA.5) (SARS-CoV-2, UniProt P0DTC2 14-1273); assay: as above
# [4] = biological target: T4, BV2509 (recombinant CoV S glycoprotein, BA.1) (SARS-CoV-2, UniProt P0DTC2 14-1273); assay: as above
# [5] = biological target: T5, BV2562 (recombinant CoV S glycoprotein, BA.4.6) (SARS-CoV-2, UniProt P0DTC2 14-1273); assay: as above
# [6] = biological target: BV2589 (recombinant CoV S glycoprotein, BQ.1.1) (SARS-CoV-2, UniProt P0DTC2 14-1273); assay: as above
# [7] = biological target: T6, BV2541 (recombinant CoV S glycoprotein, BA.4) (SARS-CoV-2, UniProt P0DTC2 14-1273); assay: as above
# [8] = biological target: T7, BV2542 (recombinant CoV S glycoprotein, BA.2.12.1) (SARS-CoV-2, UniProt P0DTC2 14-1273); assay: as above
# [9] = biological target: T1, BV2523 (recombinant CoV S glycoprotein, …); assay: ELISA on coated rS
# [10] = biological target: T3, BV2540 (recombinant CoV S glycoprotein, …); assay: ELISA on coated rS
# [11] = biological target: T7, BV2542 (recombinant CoV S glycoprotein, …); assay: ELISA on coated rS
# [12] = biological target: T8, RBD of a CoV S glycoprotein related to a CoV S glycoprotein from the SARS-CoV-2 omicron strain (SARS-CoV-2 omicron strain); assay: BLI, RBD-His on Ni-NTA biosensor, antibody analyte
# T8 construct: domain: RBD
# [13] = biological target: T1, BV2523 (recombinant CoV S glycoprotein, …); assay: BLI, antibody on anti-mouse Fc biosensor, rS analyte
# [14] = biological target: BV2425 (recombinant CoV S glycoprotein, Alpha) (SARS-CoV-2, UniProt P0DTC2 14-1273); assay: as above
# [15] = biological target: T2, BV2561 (recombinant CoV S glycoprotein, …); assay: as above
# [16] = biological target: T3, BV2540 (recombinant CoV S glycoprotein, …); assay: as above
# [17] = biological target: T4, BV2509 (recombinant CoV S glycoprotein, …); assay: as above
# [18] = biological target: BV2443 (recombinant CoV S glycoprotein, Gamma) (SARS-CoV-2, UniProt P0DTC2 14-1273); assay: as above
# [19] = biological target: T5, BV2562 (recombinant CoV S glycoprotein, …); assay: as above
# [20] = biological target: T6, BV2541 (recombinant CoV S glycoprotein, …); assay: as above
# [21] = biological target: BV2465 (recombinant CoV S glycoprotein, Delta) (SARS-CoV-2, UniProt P0DTC2 14-1273); assay: as above
# [22] = biological target: BV2438 (recombinant CoV S glycoprotein, Beta) (SARS-CoV-2, UniProt P0DTC2 14-1273); assay: as above
# [23] = biological target: T7, BV2542 (recombinant CoV S glycoprotein, …); assay: as above
# [24] = biological target: BV2373 (recombinant CoV S glycoprotein, Prototype) (SARS-CoV-2, UniProt P0DTC2 14-1273); assay: as above
binder,measurement,setting,value
B1,IC50,[1],0.126 µg/mL
same,IC50,[2],0.169 µg/mL
same,IC50,[3],> 3 µg/mL
same,IC50,[4],0.097 µg/mL
same,IC50,[5],> 5 µg/mL
same,IC50,[6],> 3 µg/mL
same,IC50,[7],> 5 µg/mL
same,IC50,[8],0.177 µg/mL
same,EC50,[9],0.053 µg/mL
same,EC50,[10],1.03 µg/mL
same,EC50,[11],0.104 µg/mL
same,Kd,[12],1.93 pM
same,kon,[12],142000 M⁻¹ s⁻¹
same,Kd,[13],8.43 pM
same,koff,[13],1.61e-07 s⁻¹
same,kon,[13],19100 M⁻¹ s⁻¹
same,Kd,[14],3.22 pM
same,Kd,[15],6.87 pM
same,Kd,[16],7.23 pM
same,koff,[16],1.21e-07 s⁻¹
same,kon,[16],17600 M⁻¹ s⁻¹
same,Kd,[17],9.82 pM
same,koff,[17],1.52e-07 s⁻¹
same,kon,[17],15500 M⁻¹ s⁻¹
same,Kd,[18],19.8 pM
same,koff,[18],1.7e-07 s⁻¹
same,kon,[18],9090 M⁻¹ s⁻¹
same,Kd,[19],< 1 pM
same,koff,[19],< 1e-07 s⁻¹
same,kon,[19],38500 M⁻¹ s⁻¹
same,Kd,[20],< 1 pM
same,koff,[20],< 1e-07 s⁻¹
same,kon,[20],22700 M⁻¹ s⁻¹
same,Kd,[21],3.73 pM
same,koff,[21],1.42e-07 s⁻¹
same,kon,[21],41900 M⁻¹ s⁻¹
same,Kd,[22],15.2 pM
same,koff,[22],1.54e-07 s⁻¹
same,kon,[22],10500 M⁻¹ s⁻¹
same,Kd,[23],7.87 pM
same,koff,[23],1.14e-07 s⁻¹
same,kon,[23],15000 M⁻¹ s⁻¹
same,Kd,[24],5.29 pM
same,koff,[24],1.67e-07 s⁻¹
same,kon,[24],33000 M⁻¹ s⁻¹
B2,IC50,[1],0.032 µg/mL
same,IC50,[2],> 5 µg/mL
same,IC50,[3],0.028 µg/mL
same,IC50,[4],> 3 µg/mL
same,IC50,[5],0.071 µg/mL
same,IC50,[6],> 3 µg/mL
same,IC50,[7],0.037 µg/mL
same,IC50,[8],0.028 µg/mL
same,EC50,[9],0.028 µg/mL
same,EC50,[10],0.014 µg/mL
same,EC50,[11],0.034 µg/mL
same,Kd,[12],4890 pM
same,koff,[12],0.00123 s⁻¹
same,kon,[12],272000 M⁻¹ s⁻¹
same,Kd,[13],3.69 pM
same,koff,[13],1.37e-07 s⁻¹
same,kon,[13],38200 M⁻¹ s⁻¹
same,Kd,[14],< 1 pM
same,Kd,[15],< 1 pM
same,koff,[15],< 1e-07 s⁻¹
same,kon,[15],46900 M⁻¹ s⁻¹
same,Kd,[16],1.76 pM
same,koff,[16],1.5e-07 s⁻¹
same,kon,[16],85900 M⁻¹ s⁻¹
same,Kd,[17],3.91 pM
same,koff,[17],1.54e-07 s⁻¹
same,kon,[17],41300 M⁻¹ s⁻¹
same,Kd,[18],< 1 pM
same,Kd,[19],< 1 pM
same,Kd,[20],< 1 pM
same,Kd,[21],< 1 pM
same,Kd,[22],< 1 pM
same,Kd,[23],3.81 pM
same,koff,[23],1.51e-07 s⁻¹
same,kon,[23],40200 M⁻¹ s⁻¹
same,Kd,[24],< 1 pM
B3,IC50,[1],0.224 µg/mL
same,IC50,[2],> 5 µg/mL
same,IC50,[3],0.779 µg/mL
same,IC50,[4],0.493 µg/mL
same,IC50,[5],0.411 µg/mL
same,IC50,[6],0.265 µg/mL
same,IC50,[7],0.543 µg/mL
same,IC50,[8],0.866 µg/mL
same,EC50,[9],0.195 µg/mL
same,EC50,[10],0.045 µg/mL
same,EC50,[11],0.225 µg/mL
same,Kd,[12],1.69 pM
same,kon,[12],138000 M⁻¹ s⁻¹
same,Kd,[13],40.5 pM
same,Kd,[14],78.7 pM
same,Kd,[15],4.47 pM
same,Kd,[16],13.2 pM
same,koff,[16],1.46e-07 s⁻¹
same,kon,[16],11100 M⁻¹ s⁻¹
same,Kd,[17],87.4 pM
same,Kd,[18],107 pM
same,koff,[18],1.26e-07 s⁻¹
same,kon,[18],1180 M⁻¹ s⁻¹
same,Kd,[19],< 1 pM
same,Kd,[20],< 1 pM
same,Kd,[21],78.7 pM
same,Kd,[22],6.48 pM
same,koff,[22],1.24e-07 s⁻¹
same,kon,[22],20100 M⁻¹ s⁻¹
same,Kd,[23],41.5 pM
same,koff,[23],1.22e-07 s⁻¹
same,kon,[23],2690 M⁻¹ s⁻¹
same,Kd,[24],57.1 pM
